Assay results as given in patent publication US11571459B2, “Methods for treating cancer using PS-targeting antibodies with immuno-oncology agents” (ONCXERNA THERAPEUTICS, INC., priority 2017, dated 2023).
Where two headings read alike, the source gives them in different places.

Columns and labels:
PS = test: ELISA binding to PS-coated plates
Experimental: The 3G4 antibody was produced by immunizing mice with autologous, PS-positive endothelial cells, as reported in Ran et al., 2005. The 3G4 antibody was tested for binding to PS in a standard ELISA in the presence and absence of serum, and was initially characterized as being “serum-independent”, i.e., an antibody that binds to PS in the absence of serum.
In a follow-on study, the binding of the 2aG4 antibody to PS was tested in an ELISA in the presence of varying concentrations of human β2GPI.
These included binding to PS in ELISAs, FACS analyses using PS-positive cells and functional assays in the form of an NFAT surrogate ADCC bioassay (Larson et al., 2013).

tumors = test: Syngeneic and xenogeneic tumor models; format: in vivo, mice; details: wide range of studies
Experimental: The 3G4 antibody was purified to apparent homogeneity from the supernatant of the cultured hybridoma using a standard Protein A procedure.
In early studies in mice, it was calculated that molar ratios of β2GPI to antibody of between 0.12 and 0.25 were effective for anti-tumor activity, thus showing that high levels of β2GPI are not necessary for anti-tumor activity.

hepatitis C virus (HCV) = test: Phase I single intravenous infusion dose escalation study in chronic HCV; format: in vivo, human; details: for Observed Cmax: HCV patients
Experimental: A Phase I, open-label, single center, dose escalation study evaluated a single intravenous infusion of bavituximab in patients chronically infected with HCV (Example III, A).
Bavituximab was first evaluated in Phase I, open-label, dose escalation studies and Phase Ib, open-label, escalating repeat-dose studies in patients chronically infected with hepatitis C virus (HCV). […] Doses of 0.1, 0.3, 1, 3 and 6 mg/kg were administered in Phase I (30 patients; successive cohorts of 6 patients), and doses of 0.3, 1, 3 and 6 mg/kg were administered in Phase Ib (24 patients; four cohorts of 6 patients).

[1] = system: HER2-negative metastatic breast cancer; test: Bavituximab and paclitaxel in HER2-negative metastatic breast cancer; format: in vivo, human
From the text: Manageable infusion-related reactions were the most common AE related to bavituximab.

[2] = system: previously treated non-squamous NSCLC
Experimental: The primary objective of this study was to compare the ORR (CR+PR) among the treatment arms. Secondary objectives included comparing PFS, DR, OS, safety and PK.
Additional blood draws were performed for these patients during Cycles 1 and 2 at specified time points.
Samples from the NSCLC Phase II trial of Example IX (PPHM 0902) were tested using the functional β2GPI assay of Example XII.

[3] = in vivo
Experimental: (§1) Samples were collected from patients in the 0.1 and 0.3 mg/kg dose cohorts before the study, on days 0, 1, 2, 4, 7, 10, 14, and every 7 days from days 21 to 70. Samples were collected from patients in the 1 and 3 mg/kg dose cohorts before the study, on days 0, 1, 2, 4, 7, 14, 21, 22, 23, 25, and every 7 days from days 28 to 56.

β2GPI = molecular target: T1, β2GPI (Homo sapiens, UniProt P02749); test: Serum β2GPI levels after bavituximab, Phase Ib HCV study; format: in vivo; set-up: from tissue; host or cells: serum of human patients
T1 sequence (P02749 20-345): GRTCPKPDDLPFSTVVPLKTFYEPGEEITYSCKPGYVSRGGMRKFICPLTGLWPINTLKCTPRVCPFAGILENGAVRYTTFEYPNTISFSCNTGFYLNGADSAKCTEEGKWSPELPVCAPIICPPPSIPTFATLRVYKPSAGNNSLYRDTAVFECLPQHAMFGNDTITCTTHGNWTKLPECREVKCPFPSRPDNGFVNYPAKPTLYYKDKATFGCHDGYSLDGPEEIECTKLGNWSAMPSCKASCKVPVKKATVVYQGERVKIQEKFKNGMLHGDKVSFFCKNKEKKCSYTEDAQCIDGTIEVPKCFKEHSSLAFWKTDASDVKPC
Experimental: At the 6 mg/kg dose, β2GPI levels fell by 40% relative to the pretreatment levels, to approximately the lower limit of the normal range.

[4] = system: previously-treated Stage IIIb/IV non-squamous NSCLC; test: Phase III trial of bavituximab plus docetaxel in NSCLC; details: functional β2GPI ≥200 μg/mL
From the text: This global, double-blind Phase III trial was initiated in 2012. Selection criteria were for patients with Stage IIIb/IV non-squamous NSCLC who progressed on platinum-doublet chemotherapy (should have progressed on appropriate targeted therapy if known EGFR or ALK mutation), with ECOG PS 0-1 and prior immunotherapy allowed (ECOG is the performance status scale defined by the Eastern Cooperative Oncology Group). […] The primary endpoint was overall survival (OS) and secondary endpoints included objective response rate (Independent Central Review, ICR), progression-free survival (ICR), safety, PK, Quality of Life (LCSS) and exploratory biomarkers, including immune correlates.
OS was analyzed by VeriStrat subgroups using Kaplan-Meier statistical methods.
A single cutoff method was first used to assess the patient β2GPI data.
The initial analyses described above prompted further, extensive analyses of the data in 592 evaluable patients. These analyses used a two cutoff method (Klein & Moeschberger, 2003).
Archival tissue obtained at the time of diagnosis was requested, but not required, in the Phase III trial of Example X. Formalin-fixed paraffin-embedded (FFPE) slides were stained with antibodies for a panel of lymphoid (or tumor) cell markers, as described in Feng et al., 2015: CD3+, CD8+, FoxP3+, PD-L1+, CD163+ and CK+ (cytokeratin, an epithelial carcinoma marker) using a mutliplex (6-plex) quantitative immunohistochemistry (IHC) assay (OPAL®, PerkinElmer, Waltham, Mass., USA) and using DAPI. The PD-L1 antibody used was the rabbit anti-PD-L1 antibody termed E1L3N® XP® (Cell Signaling Technology, (CST), Danvers, Mass., Catalogue #13684; Mahoney et al., 2015). Baseline PD-L1 expression was retrospectively scored on tumor cells (TC, i.e., CK+) and PD-L1 expressing tumor cells were classified according to their percentage within the total number of tumor cells using established assays and classifications (Fehrenbacher et al., 2016), as follows: TC3≥50%; TC2≥5% and ≤50%; TC1≥1% and <5%; and TC0<1%. Cox regression models for PD-L1 IHC subgroup populations were used for correlation with OS.
Kaplan-Meier statistical methods and Cox proportional hazard models were utilized to evaluate and contrast the correlation of peripheral (and intratumoral) IFNγ levels with OS based on a data cut from the Phase III trial (Example X) dated Feb.

HCV (genotype 1) = test: Phase II study of bavituximab with ribavirin in chronic HCV (genotype 1); details: for patients with early virological response (EVR): Week 12
[5] = Phase I dose escalation study of bavituximab monotherapy in refractory advanced solid tumors: PK, safety; details: for AUCinf / Cmax / t1/2 / CL: Mean (CV %)
Experimental: as §1

[6] = 3 mg/kg weekly with paclitaxel, 14 patients
[7] = ITT, all with docetaxel, Bavituximab arm 3 mg/kg

Substance: bavituximab
- binding to PS in ELISA in the absence of serum (PS; antibody expressed in CHO cells under serum-free conditions): binding to PS was lost
- binding to phospholipids in standard ELISA (PS; phospholipid-coated ELISA plates): bound at least as well as the murine 3G4
- in vivo localization and effects (tumors): localize to tumor vascular endothelium and to exert anti-tumor effects and anti-viral effects
- Observed Cmax (hepatitis C virus (HCV); 0.1 mg/kg single infusion): 2500 ng/mL
- Observed Cmax (hepatitis C virus (HCV); 0.3 mg/kg single infusion): 5700 ng/mL
- Observed Cmax (hepatitis C virus (HCV); 1 mg/kg single infusion): 24300 ng/mL
- Observed Cmax (hepatitis C virus (HCV); 3 mg/kg single infusion): 75800 ng/mL
- Observed Cmax (hepatitis C virus (HCV); 6 mg/kg single infusion): 135000 ng/mL
- tolerability (hepatitis C virus (HCV); Phase I and Phase Ib, 0.1 to 6 mg/kg): all dose levels of bavituximab were well tolerated
- viral load (hepatitis C virus (HCV); Phase I, all dose levels): transient reductions in viral load
- median progression-free survival (PFS) ([1]; 3 mg/kg weekly with paclitaxel): 7.3 months
- overall response rate (ORR) [1, 6]: 85%
- patients having a complete response [1, 6]: 2 patients
- tolerability ([1]; in combination with paclitaxel): well tolerated
- most common adverse events ([1]; with paclitaxel): Bone pain, fatigue, headache and neutropenia
- thrombogenicity ([1]; with paclitaxel): no evidence for increased thrombogenicity
- ORR greater than combined group by ([2]; 3 mg/kg): approximately 50%
- median OS longer than combined group by ([2]; 3 mg/kg): approximately 60%
- Deaths [2, 7]: 53.7%
- Number of Deaths [2, 7]: 22
- Overall Response Rate (CR + PR) ([2]; ITT, central review, all with docetaxel, Bavituximab arm 3 mg/kg): 17.1%
- pharmacokinetic drug-drug interaction ([2]; PK sub-study, 6 patients per arm, cycles 1 and 2): No clinically relevant pharmacokinetic drug-drug interaction was observed
- mOS ([2]; functional β2GPI less than 200 μg/mL, bavituximab 3 mg/kg with docetaxel): 9.4 months
- mOS ([2]; functional β2GPI ≥200 μg/mL, bavituximab 3 mg/kg, all with docetaxel): 16.8 months
- accumulation following multiple-dose administration [3]: did not exhibit appreciable accumulation or time-dependent PK differences
- tolerability [3]: well tolerated at doses ranging up to 3 mg/kg weekly
- change of β2GPI levels (β2GPI; 1 mg/kg): virtually unchanged
- time for β2GPI to return to pre-treatment level (β2GPI; 3 mg/kg): ≤ 24 h
- time for β2GPI to recover to baseline (β2GPI; 6 mg/kg): 3 days
- mOS ([4]; with subsequent IO): has yet to be reached
- mOS ([4]; without subsequent IO): 10.5 months
- patients with early virological response (EVR) (HCV (genotype 1); 0.3 mg/kg weekly with ribavirin): 18%
- patients with early virological response (EVR) (HCV (genotype 1); 3 mg/kg weekly with ribavirin): 9%
- safety profile / patients reporting AEs (HCV (genotype 1); all with ribavirin): more favorable safety profile
- viral reduction (HCV (genotype 1); plus ribavirin, 12 weeks): gradual viral reduction over 12 weeks was seen in some patients
- PK linearity ([5]; 0.1 to 3 mg/kg): linear single-dose (day 0) and multiple-dose (days 21 or 42) PK characteristics
- maximum tolerated dose ([5]; 0.1 to 3 mg/kg weekly): No maximum tolerated dose was reached
- AUCinf ([5]; Day 0, 0.1 mg/kg, N=8): 113 (50.1) d μg/mL
- Cmax ([5]; Day 0, 0.1 mg/kg, N=8): 2.11 (27.3) μg/mL
- t1/2 ([5]; Day 0, 0.1 mg/kg, N=8): 43.9 (48.5) h
- AUCinf ([5]; Day 0, 0.3 mg/kg, N=6): 241 (39.8) d μg/mL
- Cmax ([5]; Day 0, 0.3 mg/kg, N=6): 5.13 (42.4) μg/mL
- t1/2 ([5]; Day 0, 0.3 mg/kg, N=6): 39.8 (34.1) h
- AUCinf ([5]; Day 0, 1.0 mg/kg, N=6): 966 (30.0) d μg/mL
- Cmax ([5]; Day 0, 1.0 mg/kg, N=6): 16.6 (30.9) μg/mL
- t1/2 ([5]; Day 0, 1.0 mg/kg, N=6): 40.3 (20.2) h
- AUCinf ([5]; Day 0, 3.0 mg/kg, N=6): 3,017 (50.3) d μg/mL
- Cmax ([5]; Day 0, 3.0 mg/kg, N=6): 56.4 µg/mL
- t1/2 ([5]; Day 0, 3.0 mg/kg, N=6): 37.2 (34.5) h
- AUCinf ([5]; Day 21, 1.0 mg/kg weekly, N=6): 1,053 (38.0) d μg/mL
- CL ([5]; Day 21, 1.0 mg/kg weekly, N=6): 1.12 (52.1) mL/kg/d
- Cmax ([5]; Day 21, 1.0 mg/kg weekly, N=6): 18.7 (31.8) μg/mL
- t1/2 ([5]; Day 21, 1.0 mg/kg weekly, N=6): 46.8 (38.4) h
- AUCinf ([5]; Day 21, 3.0 mg/kg weekly, N=4): 2,672 (63.4) d μg/mL
- CL ([5]; Day 21, 3.0 mg/kg weekly, N=4): 1.51 (61.4) mL/kg/d
- Cmax ([5]; Day 21, 3.0 mg/kg weekly, N=4): 59.6 (27.6) μg/mL
- t1/2 ([5]; Day 21, 3.0 mg/kg weekly, N=4): 46.0 (44.4) h
- time concentration remained above 2 μg/mL ([5]; dose of 1 mg/kg): 6 days
- time concentration remained above 2 μg/mL ([5]; dose of 3 mg/kg): 7 days
